Reference: publication PMC8368038 (The Journal of Biological Chemistry, 2021)
One block for each binder: values may come before it.

B1: KANK1_ANKRD^SF (Trx-tagged) (domain or fragment, mouse, UniProt E9Q238 1081-1360, looked up)
chain: EPEKEEIRERYELSEKMLSACNLLKYNIKDPKALASKDMRICLNTLQHDWFRVSSQKSAVPAMVGDYIAAFEAVSPDVLRYIINMADGNGNTALHYSVFHSNFQIVKLLLDADVCNVDHQNKAGYTPIMLAALAAVEAEKDMQVVEELFSCGDVNAKASQAGQTALMLAVSHGRIDMVKGLLACGADVNIQDDEGSTALMCASEHGHVEIVKLLLAQPGCNGHLEDNDGSTALSIALEAGHKDIAVLLYAHLNFSKAQSPSTPRLGRKTSPGPTHRGSFD

What was measured:
[1] = target: eukaryotic translation initiation factor 4A1 (eIF4A1), Trx-tagged (mouse, UniProt P60843 1-406); assay: ITC
[2] = target: eIF4A1 Q148L (mouse, UniProt P60843 1-406, Q148L); assay: ITC
[3] = target: B1; assay: SEC
[4] = target: eIF4A1_NTD (residues 1-238, crystallised) (mouse, UniProt P60843 1-238); assay: crystal structure

Binder: B1
binding result [1]: binds | Kd [2]: 1900 nM

binding result [3]: binds
B2: eIF4A1 NTD (residues 1-237) (domain or fragment, mouse, UniProt P60843 1-237, looked up)
chain: MSASQDSRSRDNGPDGMEPEGVIESNWNEIVDSFDDMNLSESLLRGIYAYGFEKPSAIQQRAILPCIKGYDVIAQAQSGTGKTATFAISILQQIELDLKATQALVLAPTRELAQQIQKVVMALGDYMGASCHACIGGTNVRAEVQKLQMEAPHIIVGTPGRVFDMLNRRYLSPKYIKMFVLDEADEMLSRGFKDQIYDIFQKLNSNTQVVLLSATMPSDVLEVTKKFMRDPIRILVK

stoichiometry N [4]: 1
B3: KANK1_ANKRD^SF (residues 1088-1338, crystallised) (domain or fragment, mouse, UniProt E9Q238 1088-1338, looked up)
chain: RERYELSEKMLSACNLLKYNIKDPKALASKDMRICLNTLQHDWFRVSSQKSAVPAMVGDYIAAFEAVSPDVLRYIINMADGNGNTALHYSVFHSNFQIVKLLLDADVCNVDHQNKAGYTPIMLAALAAVEAEKDMQVVEELFSCGDVNAKASQAGQTALMLAVSHGRIDMVKGLLACGADVNIQDDEGSTALMCASEHGHVEIVKLLLAQPGCNGHLEDNDGSTALSIALEAGHKDIAVLLYAHLNFSKAQ
